B1: CD3B219 (antibody, human IgG4 S228P, lambda, F234A L235A, V domains shown)
VH: EVQLVESGGGLVQPGGSLRLSCAASGFTFNTYAMNWVRQAPGKGLEWVARIRSKYNNYATYYAASVKGRFTISRDDSKNSLYLQMNSLKTEDTAVYYCARHGNFGNSYVSWFAYWGQGTLVTVSS
VL: QTVVTQEPSLTVSPGGTVTLTCRSSTGAVTTSNYANWVQQKPGQAPRGLIGGTNKRAPGTPARFSGSLLGGKAALTLSGVQPEDEAEYYCALWYSNLWVFGGGTKLTVLG
notes: IgG4 PAA anti-CD3 parental antibody; also called anti-CD3 antibody CD3B219; anti-CD3 antibodies
B2: CD3B219 (antibody, human IgG4 S228P, lambda, F234A L235A, V domains shown)
VH: B1 VH
VL: B1 VL
notes: parental anti-CD3 mAb; also called anti-CD3 antibody; Anti-CD3

Columns and labels:
[1] = biological target: T1, ROR1 extracellular domain c-Mer proto-oncogene tyrosine kinase transmembrane domain (ROR1 ECD MERTK tm) (Homo sapiens (Human), UniProt Q01973 30-405); assay: cell binding, ROR1 transiently transfected HEK293F cells
T1 construct: also called RR1W1; ROR1-Transfected CHO

[2] = biological target: T2, human ROR1 (Receptor Tyrosine Kinase-Like Orphan Receptor 1) on cells (human, UniProt Q01973 30-937); assay: cell binding, ROR1 expressing H358 cells
T2 construct: whole, on cells; endogenous on SKMES-1, MDA-MB231, H358, HCC827 and MCL lines, or on HEK293 cells transfected with human ROR1 (pDR25226); the cell line is named under assay; also called cell-surface ROR1; hu ROR1

[3] = biological target: T3, human ROR1 (Receptor Tyrosine Kinase-Like Orphan Receptor 1) on cells (human, UniProt Q01973 30-937); assay: cell binding, H358 cells
T3 construct: whole, on cells; also called hu ROR1

[4] = biological target: ROR1 ECD MERTK tm (RR1W1) on transfected HEK293F cells (Homo sapiens (Human), UniProt Q01973 30-405); assay: cell binding, ROR1 transfected 293F cells
ROR1 ECD MERTK tm (RR1W1) on transfected HEK293F cells, sequence (Q01973 other isoform, or with tags, fused parts or gaps): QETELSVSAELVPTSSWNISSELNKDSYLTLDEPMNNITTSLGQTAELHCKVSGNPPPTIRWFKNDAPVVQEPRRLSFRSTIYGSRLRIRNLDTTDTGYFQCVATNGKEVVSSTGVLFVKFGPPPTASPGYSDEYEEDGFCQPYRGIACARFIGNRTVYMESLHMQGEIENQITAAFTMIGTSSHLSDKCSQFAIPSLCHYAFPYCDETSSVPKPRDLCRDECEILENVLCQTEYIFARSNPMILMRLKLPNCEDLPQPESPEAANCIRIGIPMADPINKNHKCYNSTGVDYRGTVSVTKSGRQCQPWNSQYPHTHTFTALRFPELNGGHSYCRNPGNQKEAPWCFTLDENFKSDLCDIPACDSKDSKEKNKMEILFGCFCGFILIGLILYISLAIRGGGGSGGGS

T1 sequence (Q01973 other isoform, or with tags, fused parts or gaps): as above

| Binder | binding result [1] | binding result [2] | binding result [3] | binding result [4] |
| --- | --- | --- | --- | --- |
| B1 | no binding | no binding |  |  |
| B2 |  |  | no binding | no binding |

— US20170210799A1 (Janssen / Centocor, published 2017)
